{
  "source": "the nanobody polyreactivity screen of Harvey et al. (2022)",
  "data": [
    {"experiment": "yeast display, Sf9 membrane polyspecificity reagent, FACS + sequencing; frameworks hold sequencing errors", "procedure,_shortened": "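Sorting gates, low and high (top ~1%), were placed on anti-HA fluorescence to track expression and on streptavidin fluorescence to track reagent binding. A clone's polyreactivity label is taken from the gate it came out of. The reagent was 10% biotinylated, detergent-solubilized Sf9 membrane, applied for 1 hour at 4 °C to galactose-induced yeast display cells.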", "values": [
      {"sequence": "QVQLVESGGGLVQAGGSLRLSCAASGRTFYFNAMGWYRQAPRKESELVAAISSGASTYYADSVKGRFTISRDNAKNTVNLQMISLKPEDTAVYYCAAEFWTQWSGYEYWGQGTQVTVSS", "polyreactivity (PSR sort gate)": "high polyreactivity"},
      {"sequence": "QVQLVESGGGLVQAGGSLRLSCAASGRTFYFNTLGWERQAPGKERELVAAISSGVNTYYADSVKGRFTISRDNAKTTVYLQMNSLKPEDTAVYYCNADYIHTGDYLWYFLYDYWGQGTQVTVSS", "polyreactivity (PSR sort gate)": "high polyreactivity"},
      {"sequence": "QVQLVESGGGLVQAGGSLRLSCAASGRTFYFYAMGWYRQAPGKERELVAAITSRVGRTYYADSVKGRFTISRDTAKNTVYLQMNSLKPEDTAVYDCAAEGVYRMGYWGQGTQVTVSS", "polyreactivity (PSR sort gate)": "high polyreactivity"},
      {"sequence": "QVQLVESGGGLVQAGGSLRLSCAASGRTFYFYVMGWYRQAPGKERELVASITSGGSTNYADSVKGRFTISRDNAKNTVYLQMNSLKPEDTAVYYCAAALPASTSGTQPYDYWGQGTQVTVSS", "polyreactivity (PSR sort gate)": "low polyreactivity"},
      {"sequence": "QVQLVESGGGLVQAGGSLRLSCAASGRTFYGNAMGWYRQAPGKERELVAAITSGGGSTRYADSVKGRFTISRDNAKNSVYLQMNSLKPEDTAVYYCAALYWYEYTYLEYDYWGQGTQVTVSS", "polyreactivity (PSR sort gate)": "high polyreactivity"},
      {"sequence": "QVQLVESGGGLVQAGGSLRLSCAASGRTFYGNAMGWYRQAPGKERELVAAITSGGGSTRYADSVKGRFTISRDNAKNTVYLQMNSLKPEDTAVYYCNATLGNFGYRRYSGHTRYYYWGQGTQVTVSS", "polyreactivity (PSR sort gate)": "high polyreactivity"},
      {"sequence": "QVQLVESGGGLVQAGGSLRLSCAASGRTFYGYAMGWYRQAPGKERELVAAISRRGGSTNYADSVKGRFTISRDNAQTTVYLQMNSLKPEDTAVYYCNKVVPHKPPTMDYWGQGTQVTVSS", "polyreactivity (PSR sort gate)": "high polyreactivity"},
      {"sequence": "QVQLVESGGGLVQAGGSLRLSCAASGRTFYGYAMGWYRQAPGKERELVAGITFRGSSTYYADSVKGRFTISRDNAKNTVYLQMNSLKPEDTAVYYCNVPYGNSHVGYDYWGQGTQVTVSS", "polyreactivity (PSR sort gate)": "high polyreactivity"},
      {"sequence": "QVQLVESGGGLVQAGGSLRLSCAASGRTFYGYAMGWYRQAPGKERELVASISRDGSTNYADSVKGRFTISRDNAKNTVYLQMNSLKPEDTAVYYCAGDIWYYRYPIYYYSYDYWGQGTQVTVSS", "polyreactivity (PSR sort gate)": "low polyreactivity"},
      {"sequence": "QVQLVESGGGLVQAGGSLRLSCAASGRTFYGYTMGWYRQAPGKERELDAAIRTSGGSTYADSVKGRFTISRDNAKNTVYLQMNSLKPEDTAVYYCAAPRVVYYGTAPAYRYDYWGQGTQVTVSS", "polyreactivity (PSR sort gate)": "high polyreactivity"},
      {"sequence": "QVQLVESGGGLVQAGGSLRLSCAASGRTFYIYAMGWYRQAPGKERELVAAITWRGGRTYYADSVKGRFTISRDNAKNTVYLQMNSLKPEDTAVYYCAARTGQGPLYNHWGQGTQVTVSS", "polyreactivity (PSR sort gate)": "high polyreactivity"},
      {"sequence": "QVQLVESGGGLVQAGGSLRLSCAASGRTFYIYAMGWYRQAPGTERELVAAITGCGGSTYYADSVKGRFTISRDNAKNTVYLQMNSLKPEDTAVYYCAAGFYGDGYTQGYGYWGQGTQVTVSS", "polyreactivity (PSR sort gate)": "low polyreactivity"},
      {"sequence": "QVQLVESGGGLVQAGGSLRLSCAASGRTFYKNAMGWYRQAPGKERELVAAISSRGGRTTYADSVKGRFTISRDNAKNTVYLQMNSLKPEDTAVYYCATDWAQVYHGTTKYYYWGQGTQVTVSS", "polyreactivity (PSR sort gate)": "high polyreactivity"},
      {"sequence": "QVQLVESGGGLVQAGGSLRLSCAASGRTFYKNTMGWYRQAPGKERELVAGISQRGGRTYYADSVKGRFTISRDNAKNTVYLQMNSLKPEDTAVYYCAADRYSYGSNGYPRFEYYYWGQGTQVTVSS", "polyreactivity (PSR sort gate)": "high polyreactivity"},
      {"sequence": "QVQLVESGGGLVQAGGSLRLSCAASGRTFYKNTMGWYRQAPGKERELVATITRRGGTTYYADSVKGRFTISRDKAKNTVYLQMNSLKPEDTAVYYCAKDASTEKYDYWGQGTQVTVSS", "polyreactivity (PSR sort gate)": "low polyreactivity"},
      {"sequence": "QVQLVESGGGLVQAGGSLRLSCAASGRTFYKYALGWYRQAPGKERELVAAITSGGSTNYADSVKGRFTISRDNAKYTVYLQMNSLKPEDTAVYYCNASFEENFPFGDYDYWGQGTQVTGSS", "polyreactivity (PSR sort gate)": "high polyreactivity"},
      {"sequence": "QVQLVESGGGLVQAGGSLRLSCAASGRTFYKYGMGWYRQAPGKERELVAAISWRTTSTYYADSVKGRFTISRDNAKNTVYLQMNSLKPEDTAVYYCNARRYLYFYGRGAQELDYWGQGTQVTVSS", "polyreactivity (PSR sort gate)": "high polyreactivity"},
      {"sequence": "QVQLVESGGGLVQAGGSLRLSCAASGRTFYKYGMGWYRQAPGKERELVARINSNGGSTYYADSVKGRFTISRDNAKNTVYLQMNSLKPEDTAVYYCAKRGSYRTKPASEYDSWGQGTQVTVSS", "polyreactivity (PSR sort gate)": "low polyreactivity"},
      {"sequence": "QVQLVESGGGLVQAGGSLRLSCAASGRTFYLNAMGWYRQAPGKEREFVARITWSGGSTYYADSVKGRFTISRDNAKNTVYLQMNSLKPEDTAVYYCIRLSSYHMDYWGQGTQVTVSS", "polyreactivity (PSR sort gate)": "high polyreactivity"},
      {"sequence": "QVQLVESGGGLVQAGGSLRLSCAASGRTFYLYAMGWYRQAPGKERELVAAITSGGSTYYADSVKGRFTISRDNAKNTVYLQMNSLKPEDTAVYYCAKRPVSVGYGYPRVSWGYDYWGQGTQVTVSS", "polyreactivity (PSR sort gate)": "high polyreactivity"},
      {"sequence": "QVQLVESGGGLVQAGGSLRLSCAASGRTFYLYGMGWYRQAPGKERELVAAITLSDGSTYYADSVKGRFTISRDNAKNTVYLQMKSLKPEDTAVYYCAARDYPFPYAMNYWGQGTQVTVSS", "polyreactivity (PSR sort gate)": "low polyreactivity"},
      {"sequence": "QVQLVESGGGLVQAGGSLRLSCAASGRTFYLYTMGWYIQAPGKERELVAAISRGGRTYADSVKGRFTISRDNAKNTVYLQMNSLKPEDTAVYYCAAESVYHGWSYQHGKGDYWGQGTQVTVSS", "polyreactivity (PSR sort gate)": "low polyreactivity"},
      {"sequence": "QVQLVESGGGLVQAGGSLRLSCAASGRTFYNAMGWYRQAPGKERELVAAITTGGGTKYADSVKGRFTISRDNAKNTVYLQMNSLKPEDTAVYYCNAYRQYRYDYWGQGTQVTVSS", "polyreactivity (PSR sort gate)": "low polyreactivity"},
      {"sequence": "QVQLVESGGGLVQAGGSLRLSCAASGRTFYNYAMGWYRQAPGKERELVATITGRGGRTFYADSVKGRFTISRDNAKNTVYLQMNSLKPEDTAVYYCDAYRSASPYYTLYVEHDYWGQGTQVTVSS", "polyreactivity (PSR sort gate)": "low polyreactivity"},
      {"sequence": "QVQLVESGGGLVQAGGSLRLSCAASGRTFYPNAMGWYRQAPGKERELVAAISLSGTRTNYADSVKGRFTISRDNAKNTVYLQMNSLKPEDTAVYYCAARYGNFDGRNYYWGQGTQVTVSS", "polyreactivity (PSR sort gate)": "high polyreactivity"},
      {"sequence": "QVQLVESGGGLVQAGGSLRLSCAASGRTFYPYAMGWYRKAPGKERELVAAITSDGSTNYADSVKGRFTISRDNAKNTVYLQMNSLKPEDTAVYYCATAGYSWVSYDYWGQGTQVTVSS", "polyreactivity (PSR sort gate)": "low polyreactivity"},
      {"sequence": "QVQLVESGGGLVQAGGSLRLSCAASGRTFYPYAMGWYRQAPGKERELVARISASGGSTYYADSVKGRFTISRDNAKNTVYLQMNSLKPEDTAVYYCARESFWRSLMDYWGQGTQVTVSS", "polyreactivity (PSR sort gate)": "high polyreactivity"},
      {"sequence": "QVQLVESGGGLVQAGGSLRLSCAASGRTFYQYAMGWYRQAPGKERELVAAISRRGGTTYYADSVKGRFTISRDNAKNTVYLQMNSLKPEDTAVYYCAASSLPAGEMYYWGQGTQVTVSS", "polyreactivity (PSR sort gate)": "high polyreactivity"},
      {"sequence": "QVQLVESGGGLVQAGGSLRLSCAASGRTFYQYDMGWYRQAPGKERDLVAAIDWSGGSTYYADSVKGRFTISRDNAKNTVYLQMNSLKPEDTAVYYCNADAYPHPVVGYDYWGQGTQVTVSS", "polyreactivity (PSR sort gate)": "low polyreactivity"},
      {"sequence": "QVQLVESGGGLVQAGGSLRLSCAASGRTFYQYDMGWYRQEPGKERAFVADIDWSGGSTYYADSVKGRFTISRDNAKNTVYLQMNSLKPEDTAVYYCNADAYPHPVVGYDYWGQGTQVTVSS", "polyreactivity (PSR sort gate)": "low polyreactivity"},
      {"sequence": "QVQLVESGGGLVQAGGSLRLSCAASGRTFYRNAMGWYRQAPGKERELVAAISQRGGRTYYADSVKGRFTISRDNAKNSVYLQMNSLKPEDTAVYYCAASPIYPVYRRHGYWGQGTQVTVSS", "polyreactivity (PSR sort gate)": "high polyreactivity"},
      {"sequence": "QVQLVESGGGLVQAGGSLRLSCAASGRTFYRNAMGWYRQAPGKERELVAAISSGGSTTYADSVKGRFTISRDNAKNTVYLQMNSLKPEDTAVYYCAARSHAGSVSPRLKEYDYWGQGTQVTVSS", "polyreactivity (PSR sort gate)": "low polyreactivity"},
      {"sequence": "QVQLVESGGGLVQAGGSLRLSCAASGRTFYRNAMGWYRQAPGKERELVAAISWSGGRTFYADSVKGRFTISRDNAKNTVYLQMNSLKPEDTAVYYCAKTYTTPGYYRYDYWGQGTQVTVSS", "polyreactivity (PSR sort gate)": "high polyreactivity"},
      {"sequence": "QVQLVESGGGLVQAGGSLRLSCAASGRTFYRNAMGWYRQAPGKERELVAAITSSGASTYYADSVKGRFTISRDNAKNTVYLQMNSLKPEDTAVYYCAAKYVYSVGNYRYDYWGQGTQVTVSS", "polyreactivity (PSR sort gate)": "low polyreactivity"},
      {"sequence": "QVQLVESGGGLVQAGGSLRLSCAASGRTFYRNAMGWYRQAPGKERELVATLNSGGSTHYADSVKGRFTISRDNAKNTVYLQMNSLKPEDTAVYYCAARSPSYRGSLSYYWGQGTQVTVSS", "polyreactivity (PSR sort gate)": "high polyreactivity"},
      {"sequence": "QVQLVESGGGLVQAGGSLRLSCAASGRTFYRNARGWYRQAPGKERELVAVISSSGVRTYYADSVKGRFTISRDNAKNTVYLQRNSQKPEDTAVYYCAADSNSYYRGFDYWGQGTQVTVSS", "polyreactivity (PSR sort gate)": "high polyreactivity"},
      {"sequence": "QVQLVESGGGLVQAGGSLRLSCAASGRTFYRNVMGWYRQAPGKVRELVAVITSGGRTNYADSVKGRFTISRDNAKNTVYLQMNSLKPEDTAVYSCNTALSSRSNKMYYWGQGTQVTVSS", "polyreactivity (PSR sort gate)": "high polyreactivity"},
      {"sequence": "QVQLVESGGGLVQAGGSLRLSCAASGRTFYRYAMGCYRQAPGKERELVAAISWRGGSTNYADSVKGRFTISRDNAKNTVYLQMNSLKPEDTAVYYCNAKFFLPATTRYYYWGQGTQVTVSS", "polyreactivity (PSR sort gate)": "high polyreactivity"},
      {"sequence": "QVQLVESGGGLVQAGGSLRLSCAASGRTFYRYAMGWYRQAPGKERELVAAITASGGSTYYADSVKGRFTISRDNAKNTVYLQMNSLKPEDTAVYYCAKGGKSRYSTWHGDYWGQGTQVTVSS", "polyreactivity (PSR sort gate)": "high polyreactivity"},
      {"sequence": "QVQLVESGGGLVQAGGSLRLSCAASGRTFYRYAMGWYRQAPGKERELVAAITWSGGSTYYADSVKGRFTTSRDNAKNTVYLQMNSLKPEDTAVYYCAADAALITYYGWADMYYWGQGTQVTVSS", "polyreactivity (PSR sort gate)": "low polyreactivity"}
    ]}
  ]
}
